Patent publication US20240059757A1 (VIR BIOTECHNOLOGY, published 2024)
Numbering of substitutions follows the chain as printed. Where two headings read alike, the source gives them in different places.

Legend:
SARS-CoV Spike protein [1] = target: T1, SARS-CoV Spike protein (SARS-CoV, UniProt P59594 14-1255); test: cell-based or functional assay
[2] = target: T2, SARS-CoV RBD (Sino Biological) (SARS-CoV, UniProt P59594 306-527); test: BLI
[3] = target: T2, SARS-CoV RBD (Sino Biological)
[4] = target: WIV-1 spike protein (on VSV pseudovirus) (WIV-1); test: cell-based or functional assay
PANG/GX spike protein = PANG/GX spike protein (PANG/GX); test: cell-based or functional assay
PANG/GD spike protein = PANG/GD spike protein (PANG/GD); test: cell-based or functional assay
SARS-CoV Spike protein [5] = target: T1, SARS-CoV Spike protein; test: cell-based or functional assay; remark: listed apart in the source
[6] = target: T2, SARS-CoV RBD (Sino Biological); test: BLI; remark: listed apart in the source

B1: S2X259 variant antibody, VH SEQ ID NO 408 / VL SEQ ID NO 442 (antibody, V domains shown)
VH: QVQLVQSGAEVKKPGSSVKVSCKASGGIFNTYTISWVRQAPGQGLEWMGRIILMSGMANYAQKIQGRVTITADKSTSTAYMELTSLRSDDTAVYYCARGFNGNYYGWGDDDAFDISGQGTLVTVYS
VL: QTVLTQPPSVSGAPGQRVTISCTGSNSNIGAGYDVHWYQQLPGTAPKLLISGNSNRPSGVPDRFSGSKSGTSASLAITGLQAEDEADYYCQSYDSSLSGPNWVFGGGTKLTVL
- neutralization IC50 (SARS-CoV Spike protein [1]): 0.0531 mg/L
- Kd [2]: 0.397 nM

B2: S2X259 variant antibody, VH SEQ ID NO 459 / VL SEQ ID NO 445 (antibody, V domains shown)
VH: B1 VH with M57K, S116W, Y125S
VL: B1 VL with S51V
- Kd [3]: 0.792 nM
- koff [3]: 0.000273 s⁻¹
- kon [3]: 345000 M⁻¹ s⁻¹

B3: S2X259 variant antibody, VH SEQ ID NO 460 / VL SEQ ID NO 445 (antibody, V domains shown)
VH: B1 VH with M54I, M57I, S116W, Y125S
VL: B1 VL with S51V
- Kd [3]: 1.59 nM
- koff [3]: 0.000621 s⁻¹
- kon [3]: 391000 M⁻¹ s⁻¹

B4: S2X259 variant antibody, VH SEQ ID NO 446 / VL SEQ ID NO 412 (antibody, V domains shown)
VH: B1 VH with M54I, M57I
VL: B1 VL with S51C
- Kd [2]: 5.58 nM

B5: S2X259 variant antibody, VH SEQ ID NO 408 / VL SEQ ID NO 444 (antibody, V domains shown)
VH: B1 VH
VL: B1 VL with S51Y
- neutralization IC50 (SARS-CoV Spike protein [1]): 0.0811 mg/L
- Kd [2]: 1.34 nM

B6: S2X259 variant antibody, VH SEQ ID NO 408 / VL SEQ ID NO 445 (antibody, V domains shown)
VH: B1 VH
VL: B1 VL with S51V
- neutralization IC50 [4]: < 0.1 mg/L
- neutralization IC50 (PANG/GX spike protein): < 0.1 mg/L
- neutralization IC50 (PANG/GD spike protein): < 0.1 mg/L
- neutralization IC50 (SARS-CoV Spike protein [5]): < 0.1 mg/L
- Kd [6]: 0.176 nM
- koff [6]: ~7.24e-05 s⁻¹
- kon [6]: 411000 M⁻¹ s⁻¹
- neutralization IC50 (SARS-CoV Spike protein [1]): 0.036 mg/L
- Kd [2]: 0.53 nM

B7: S2X259 variant antibody, VH SEQ ID NO 458 / VL SEQ ID NO 445 (antibody, V domains shown)
VH: B1 VH with S116W, Y125S
VL: B1 VL with S51V
- Kd [6]: 0.455 nM
- koff [6]: 0.000173 s⁻¹
- kon [6]: 380000 M⁻¹ s⁻¹

B8: S2X259 variant antibody, VH SEQ ID NO 448 / VL SEQ ID NO 412 (antibody, V domains shown)
VH: B1 VH with N30S
VL: B1 VL with S51C
- binding result [2]: no binding

B9: S2X259 variant antibody, VH SEQ ID NO 408 / VL SEQ ID NO 443 (antibody, V domains shown)
VH: B1 VH
VL: B1 VL with S51A
- neutralization IC50 [4]: < 0.1 mg/L
- neutralization IC50 (PANG/GX spike protein): < 0.1 mg/L
- neutralization IC50 (PANG/GD spike protein): < 0.1 mg/L
- neutralization IC50 (SARS-CoV Spike protein [5]): < 0.1 mg/L
- neutralization IC50 (SARS-CoV Spike protein [1]): 0.0353 mg/L
- Kd [2]: 0.521 nM
